Laboratory results: the supplement of paper PMC10567573
± gives the standard deviation.

Experiment: protein stability index of a GFP-peptide fusion (GPS, HEK-293T) (PSI 1-6); higher = more stable
[1] = treatment: DMSO, c terminus: a fixed tail appended
[2] = treatment: MLN4924 1 uM, 8 h, c terminus: a fixed tail appended
[3] = treatment: DMSO, c terminus: native
[4] = treatment: MLN4924 1 uM, 8 h, c terminus: native
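Further: 24-mer peptide tiles fused after GFP, lentivirally expressed, FACS-sorted into six equal bins by GFP/DsRed ratio, decoded by Illumina sequencing, PSI is the read-weighted mean bin number.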

Row | Sequence | protein stability index [1] | protein stability index [2] | protein stability index [3] | protein stability index [4]
1 | PSIYHTMASPCSAMAYHHDSRRIF [WDFY1] | 2.14 ± 0.72 | 2.18 ± 0.4 | – | –
2 | DDEEFEYRHVMLPKDIAKLVPKTH [CKS1B] | 4.38 ± 0.23 | 4.39 ± 0.32 | – | –
3 | LKALTRNVNRLNESFRDLQLRLLQ [SCARA5] | 2.37 ± 0.38 | 2.13 ± 0.46 | – | –
4 | TLICRKLGGVKKSATLRSFEGLMG [TPD52L3] | 2.06 ± 0.16 | 2.34 ± 0.33 | – | –
5 | IDVSKREPPPVKQELPPYNGFGLV [EFHC1] | 3 ± 0.095 | 3.03 ± 0.27 | – | –
6 | MSRMQSKEYPVVPRSTVRQKVASN [TBX5] | 4.25 ± 0.24 | 4.15 ± 0.087 | – | –
7 | ASLKGYQWLKDKILSEEGRRQQAK [KCNAB2] | 3.69 ± 0.18 | 3.67 ± 0.21 | – | –
8 | LHTANLGDSGFLVVRGGEVVHRSD [PPTC7] | 3.62 ± 0.11 | 3.76 ± 0.14 | – | –
9 | EHTGEVRTARALLDRDALKQSLVV [PCDHGA10] | 3.23 ± 0.2 | 3.3 ± 0.26 | – | –
10 | AAPAVRASSSPVTLRQKTVDWRRV [SLA] | 3.2 ± 0.54 | 3.17 ± 0.72 | – | –
11 | LLYDRGTKFGLFTPGSRIESILMS [CPOX] | 2.45 ± 0.46 | 2.14 ± 0.42 | – | –
12 | WELGGGTSLLDLISIPITGDTLRT [DYNC2LI1] | 2.22 ± 0.32 | 2.36 ± 0.22 | – | –
13 | RKRMKMDKTCSKTKNKSKHALRKK [FAM9B] | 4.23 ± 0.45 | 4.66 ± 0.3 | – | –
14 | VELLKNLTKYPTDRDSIWKCLKFL [INTS4] | 2.63 ± 0.28 | 2.08 ± 0.22 | – | –
15 | FAQYDSFHVDSAAEYYRLHLEGYH [TNXB] | 2.43 ± 0.81 | 2.26 ± 0.23 | – | –
16 | FTFLSAKCLQGNADGDGGGGQCCR [PCDHGC5] | 2.97 ± 0.18 | 3.29 ± 0.26 | – | –
17 | HDTEIRKVHMKDVMSALWVSGLDS [GAN] | 2.78 ± 0.29 | 2.75 ± 0.4 | – | –
18 | VHSDLSSIVILDNSPGAYRSHPDN [CTDNEP1] | 3.6 ± 0.15 | 3.72 ± 0.27 | – | –
19 | GGTPARSGTTLISVIVLDINDNAP [PCDHGC5] | 2.66 ± 1.1 | 2.64 ± 1.6 | – | –
20 | NQSVEPKKEEPEPETEAVSSSQEI [ZMYND11] | 5.25 ± 1 | 5.29 ± 0.52 | – | –
21 | RMAIGYLHSHRHLYPEGIGARQQQ [POMT2] | 2.9 ± 0.22 | 3.08 ± 0.21 | – | –
22 | GEGRSRGSANDYKDTLGKGSSLSA [KRT71] | 4.65 ± 0.52 | 4.96 ± 0.35 | – | –
23 | SEGELGGPSEPGGTHPEDHQGHSD [RHOBTB2] | 5.54 ± 0.32 | 5.49 ± 0.29 | – | –

Row | Sequence | protein stability index [1] | protein stability index [2] | protein stability index [3] | protein stability index [4]
24 | TLSKSEYMVIEEGGMNHSAFPQTP [KCNA3] | 3.43 ± 0.15 | 3.53 ± 0.28 | – | –
25 | HLSGSHNTLAPTCFKAKLHRKRGS [RSPH3] | 3.67 ± 0.14 | 3.77 ± 0.37 | – | –
26 | FREVYVGKETMCTVDGLHFNSTYN [TRIM9] | 2.23 ± 0.098 | 2.4 ± 0.28 | – | –
27 | FKPACMSEIKNLERYMCSRFFIDF [TENT5D] | 2.55 ± 0.61 | 2.42 ± 0.58 | – | –
28 | CAECSQYLDETCTCFVRDGKTYCK [ISL2] | 4.98 ± 0.29 | 4.74 ± 0.37 | – | –
29 | HITARIESDLTLESLSDEEIHPG [DRICH1] | – | – | 4.47 ± 0.23 | 4.38 ± 0.37
30 | GAPSPGSSDVSTAGTGASRSSHSS [ELF3] | 5.33 ± 0.29 | 5.32 ± 0.14 | – | –
31 | MLNMWKVRELVDKATNVVMNYSEI [CLINT1] | 2.4 ± 0.17 | 2.23 ± 0.22 | – | –
32 | MEIFMEEMREIRRKLRELQLRNCL [BEX3] | 3.28 ± 0.41 | 2.52 ± 0.97 | – | –
33 | QEDKALWEEEKALWVEERALLEGE [CCDC70] | 5.09 ± 0.3 | 5.17 ± 0.33 | – | –
34 | HVQDPQNTVKVQVLYPDGQAQMIH [INTS4] | 3.74 ± 0.23 | 3.52 ± 0.29 | – | –
35 | TIKSHLKSFSMANGMNAVMMHGRS [RAB40C] | 2.54 ± 0.14 | 2.6 ± 0.23 | – | –
36 | NSSVWNSHLQTNYSKTFQRSNVDF [NECAB1] | 2.65 ± 0.18 | 2.77 ± 0.32 | – | –
37 | PEELRKVFITYSMDTAMEVVKFVN [TRAF3IP2] | 2.24 ± 0.46 | 2.08 ± 0.37 | – | –
38 | GNQLQLNQHCLDTAFNFFKMAVSR [BRF1] | 2.25 ± 0.36 | 1.96 ± 0.28 | – | –
39 | DTLISQESCEKNDPLSLLDDSKFP [PCDHGA10] | 5.05 ± 0.18 | 4.93 ± 0.2 | – | –
40 | EAASFLQILPVLDFCKVFLISGVT [KLHL13] | 3.43 ± 0.78 | 2.96 ± 0.13 | – | –
41 | LNLEEDRIQIWFQNRRAKLKRSHR [HESX1] | 2.86 ± 0.18 | 3.16 ± 0.36 | – | –
42 | NLPCNKFKNRLVNIMPYESTRVCL [PTPRD] | 2.15 ± 0.23 | 2.65 ± 0.96 | – | –
43 | ETVVSYLPLSHIAAQMMDIWVPIK [ACSBG2] | 2.14 ± 0.36 | 2.04 ± 0.14 | – | –
44 | QVGRGLRYIHSMSLVHMDIKPSNI [WEE1] | 2.15 ± 0.3 | 2.08 ± 0.25 | – | –
45 | KAVFGKHGPISEVLLIKDRTSKSR [RBMY1A1] | 3.04 ± 0.28 | 3.34 ± 0.22 | – | –
46 | LSTPDSQSLRCDLIRYICGVVHPS [INTS3] | 2.29 ± 0.46 | 2.29 ± 0.3 | – | –

Row | Sequence | protein stability index [1] | protein stability index [2] | protein stability index [3] | protein stability index [4]
47 | KHTVKEHECKLTQEILELIDREVD [IQUB] | 4.06 ± 0.23 | 4.24 ± 0.22 | – | –
48 | VFSFGKHYWELDVDNSCDWALGVC [TRIM43] | 2.54 ± 0.085 | 2.54 ± 0.39 | – | –
49 | KTIKSFFPHSGKDCLLCFPETLPE [C8orf76] | 2.92 ± 0.26 | 3.03 ± 0.32 | – | –
50 | GQLDEKEKDLVGLAQIAEVLEMFD [RHOBTB1] | 3.4 ± 0.37 | 3.61 ± 0.58 | – | –
51 | RLIRKMFSFKVSRWMGLACFRSLA [CCDC70] | 2.35 ± 0.46 | 2.29 ± 0.45 | – | –
52 | EGKSRHVDFQCVKSKSITNLAAAA [BTBD10] | 3.48 ± 0.43 | 3.9 ± 0.28 | – | –
53 | LRPAKRELRGAEPGRPARLDQLLD [SPSB4] | 4.12 ± 0.2 | 4.03 ± 0.22 | – | –
54 | KMKTRELHRESSNFDSIYICPSTF [HDAC6] | 2.26 ± 0.36 | 2.71 ± 0.39 | – | –
55 | TYHVGKQCFFNGVFLGNKRSLSER [SPATS1] | 2.36 ± 0.21 | 2.59 ± 0.22 | – | –
56 | KAHKYSELIILYEKKGLHEKALQV [VPS39] | 2.19 ± 0.43 | 2.18 ± 0.46 | – | –
57 | MSVLWLEHDRETRMQYAPDLMKRL [KLHL14] | 2.35 ± 0.11 | 2.45 ± 0.15 | – | –
58 | PSLQAWNDAPCDKTFLFICKRPYV [CD207] | 2.17 ± 0.28 | 2.2 ± 0.21 | – | –
59 | QNEEYLLTYINEDRISTTFRLTTL [PLK2] | 2.6 ± 0.37 | 2.29 ± 0.58 | – | –
60 | LLSDVRFVLGKGRGAAAAGGPQRI [BTBD1] | 2.85 ± 0.63 | 3.04 ± 0.27 | – | –
61 | SLAYCLACGGGHLLPYFYIIYMAI [DHCR7] | 2.6 ± 0.64 | 2.45 ± 0.31 | – | –
62 | LFPASPTREAHRESSVPVTPSVPP [FBF1] | 4.88 ± 0.19 | 4.84 ± 0.11 | – | –
63 | LEWNSLGTWDDAFATFCGGLAANG [LRRC45] | 2.52 ± 0.3 | 2.58 ± 0.31 | – | –
64 | DKGGRVVIFQREQESKNQVHRRGE [PPP2R2B] | 4.59 ± 0.32 | 4.95 ± 0.29 | – | –
65 | APPSPRDISMEIDSPENMMRHIRF [CCDC6] | 3.51 ± 0.28 | 3.65 ± 0.26 | – | –
66 | KLGWGHFSTVWLCWDMQGKRFVAM [SRPK2] | 2.9 ± 0.87 | 2.64 ± 1.2 | – | –
67 | DGLPDLGHAQDLMDGLPPGDSNQL [CTNNB1] | 5.33 ± 0.26 | 5.4 ± 0.19 | – | –
68 | PKWGWEQLEVTCTPYLKETLNSIW [POMT2] | 2.49 ± 0.58 | 2.12 ± 0.61 | – | –
69 | RFGDRMFYKDWWNSTSYSNYYRTW [SOAT1] | 1.92 ± 0.23 | 2.04 ± 0.34 | – | –

Row | Sequence | protein stability index [1] | protein stability index [2] | protein stability index [3] | protein stability index [4]
70 | SALSDTEIQREIGISNALHRLKLR [PPFIA4] | 4.2 ± 0.27 | 4.17 ± 0.25 | – | –
71 | SPSTLIGSLRTLELGSESQGASES [HDAC6] | 5.08 ± 0.29 | 4.92 ± 0.33 | – | –
72 | LGLLFERHWHRPVLMAVSVHSERK [SCNN1D] | 2.21 ± 0.23 | 2.33 ± 0.24 | – | –
73 | RERKKLVLENLEDSCVLTGPDDSL [TRIB3] | 4.91 ± 0.26 | 4.95 ± 0.36 | – | –
74 | LYGTKGNYTSRVWEYSSSIQNSDN [TRIM29] | 3.04 ± 0.2 | 2.83 ± 0.26 | – | –
75 | DYLTVKVWDLNMEARPIETYQVHD [PPP2R2C] | 2.69 ± 0.34 | 2.86 ± 0.16 | – | –
76 | HNAVTSHQRPGWPGQPHSPFPHPT [NCF4] | 3.11 ± 0.17 | 3.67 ± 0.21 | – | –
77 | RYEPLPPSLPAAGEQDCCGERVVI [KCNA3] | 4.04 ± 0.16 | 4.08 ± 0.34 | – | –
78 | LRSPNNFLSYYRLTRFLSRVIKCD [CCND1] | 2.24 ± 0.42 | 2.44 ± 0.2 | – | –
79 | TDEFRELRATVERMGLMKANHVFF [FADS1] | 2.48 ± 0.56 | 2.12 ± 0.21 | – | –
80 | LFSLMVVNRLTEELGCDEIIDRE [EID1] | – | – | 3 ± 1.1 | 2.37 ± 0.48
81 | LKVTGKPDAETLKVMKQPRCGVPD [MMP1] | 4.47 ± 0.3 | 4.49 ± 0.15 | – | –
82 | LQLGDGGGCTVGVAGEGVRRKGEM [TRIM15] | 4.71 ± 0.17 | 3.84 ± 0.45 | – | –
83 | CLGALCENTCLLRGFSGGILAFLV [TSPAN10] | 2.34 ± 0.57 | 2.55 ± 0.33 | – | –
84 | NCKLATRAKDFLPADIQAQFAISR [SNX8] | 2.45 ± 0.21 | 2.73 ± 0.52 | – | –
85 | KSEEGHPFKAYLDVDITLSSEAFH [RTN3] | 2.87 ± 0.45 | 2.67 ± 0.41 | – | –
86 | KLEYEEIALDLTPVIEELTNAGFL [FAN1] | 2.14 ± 0.23 | 2.38 ± 0.24 | – | –
87 | KDKRRIVSSSQDGKVIVWDSFTTN [GNB5] | 3.63 ± 0.049 | 3.8 ± 0.19 | – | –
88 | PAFTVWCGSFQVTTGLQVPSAVRC [FSD1] | 2.63 ± 0.6 | 2.56 ± 0.54 | – | –
89 | YMSINTHLGKEQSRRDDLEALGHM [CSNK1G1] | 3.28 ± 0.19 | 3.74 ± 0.29 | – | –
